In test [1] the target is T1, Green Fluorescent Protein (GFP) (UniProt P42212 1-238 = GFP, biotin on the avi-tag (in-vivo biotinylation)). Put plainly: SPR.
Test [2] concerns the target T1, Green Fluorescent Protein (GFP). Kind of test: FP.
In test [3] the target is superfolder GFP (sfGFP) (UniProt P42212 = GFP, biotin (in-vivo biotinylated, in the ELISA)). Kind of test: FP.
The target of test [4] is T1, Green Fluorescent Protein (GFP). Put plainly: SPR. The source holds these as a separate data set. Background: SPR reads the build-up and loss of mass on a sensor chip optically.
Test [5] has the same target. Kind of test: FP; PBS with 0.03% BSA.
Test [6] shares this target. Kind of test: FP; PBS with 0.005% Tween-20.

Changes are numbered by the printed parent chain.

Data on four molecules can be found in publication PMC4265764 (2014).

B1: DARPin 3G86.32 (designed binder)
chain: MRGSHHHHHHGSDLGKKLLEAARAGQDDEVRILMANGADVNALDRFGLTPLHLAAQRGHLEIVEVLLKCGADVNAADLWGQTPLHLAATAGHLEIVEVLLKYGADVNALDLIGKTPLHLTAIDGHLEIVEVLLKHGADVNAQDKFGKTAFDISIDNGNEDLAEILQKLN
As to B1, in test [1], the koff (in general, the first-order rate constant of dissociation) amounted to 0.00022 s⁻¹. For the same molecule, the Kd (commonly the concentration at which binding is half-saturated) is less than 5 nM in test [2] and 5.3 nM in test [3].

B2: DARPin 3G86.1 (designed binder)
chain: B1 chain with Y102N, L109R, L111N, K114H, T120A, I122W, D123A
B2: the dissociation rate constant (koff) in test [1] came out at 0.000369 s⁻¹. In addition, the Kd in test [4] was 0.32 nM; in test [2], less than 5 nM; in test [3] it was 29 nM.

B3: DARPin 3G61 (designed binder)
chain: MRGSHHHHHHGSDLGKKLLEAARAGQDDEVRILMANGADVNALDEVGWTPLHLAAWGHLEIVEVLLKNGADVNAADIDGYTPLHLAAFSGHLEIVEVLLKYGADVNADDQAGFTPLHLAAIFGHLEIVEVLLKNGADVNAQDKFGKTAFDISIDNGNEDLAEILQKLN
Regarding B3, the off-rate constant (koff) in test [1] was found to be 0.000797 s⁻¹. Also, the dissociation constant Kd was 1.1 nM in test [4], 76 nM in test [5], less than 5 nM in test [6] and 96 nM in test [3].

B4: DARPin 3G124 (designed binder)
chain: DLGKKLLEAARAGQDDEVRILMANGADVNAADDVGVTPLHLAAQRGHLEIVEVLLKYGADVNAADLWGQTPLHLAATAGHLEIVEVLLKNGADVNARDNIGHTPLHLAAWAGHLEIVEVLLKYGADVNAQDKFGKTAFDISIDNGNEDLAEILQ
In turn, B4 came in with a koff in test [1] of 0.000228 s⁻¹. The equilibrium dissociation constant (Kd) in test [4] was 0.36 nM; in test [2] it was less than 5 nM; in test [3], 22 nM.
